# Measurements reported in article doi:10.1101/447979.
# Molecular target: FLAG-tagged human importin-α7 (human) (UniProt O60684)
# Assay: co-IP
substance,measurement,value
"nucleoprotein (NP) of 2009 pandemic H1N1 influenza A virus A/Hamburg/NY1580/09, parental (natural protein)",fold binding against importin-α1,10 fold
